Data as given in patent US7648964B2, “Use of lacritin in promoting ocular cell survival” (University of Virginia Patent Foundation, priority 2004, dated 2010).

Legend:
caspase-9 = assay: Caspase-9 activity in human corneal epithelial cells treated with TNF-α; type: cell-based; settings: lacritin polypeptides 10 nM
Experimental: FIG. 13 graphically illustrates the ability of lacritin polypeptides (10 nM) to block TNFα induced caspase-9 activity in human corneal epithelial cells. The ordinate represents relative fluorescence units. White bars indicate 6 hours and diagonally-hatched bars indicate 9 hours.
Caspase-9 activity was measured in cells treated with various combinations of TNF-α, fragments of lacritin, and the PKC inhibitor Go6976. […] The PKC-α inhibitor Go6976 and C-25 fail to block this increase of the downstream initiator caspase-9.

PKCα [1] = assay: PKCα translocation in HSG cells (immunofluorescence, fractionation); type: cell-based, human; settings: 15 min after treatment
Text: In order to dissect the molecular pathways leading to the cell survival by lacritin, protein kinases and transcriptional factors were studied by Western blotting and immunofluorescence microscopy.
Images were acquired at 2-3 s intervals using LaserSharp2000 software (Bio-Rad) and store on disc for later analysis.

PKCα [2] = assay: Phospho-PKCα blot of HSG cell lysates; type: cell-based, human
Experimental: (§1) For phosphotyrosine blotting and mitogenesis assays, cells in serum-containing media were seeded overnight in 24-well plates at a density of 0.5×10^5 cells/mm^2 corresponding to 20-30% confluency after cell attachment, incubated in serum-free media without supplements for 24 h (phosphotyrosine) or washed with serum-free media without supplements three times (mitogenesis) and incubated with lacritin (1-1000 nM), or positive controls EGF (1.6 nM) and 10% fetal bovine serum, or negative controls bovine serum albumin or no additive in serum-free media without supplements for the indicated times (phosphotyrosine) or 30 h (mitogenesis). For phosphotyrosine assays, cells were extracted in 1% NP40 containing sodium vanadate (2 mg/ml), DTT (5 mg/ml), protease inhibitors, 50 mM HEPES, 100 mM NaCl, and 2 mM EDTA; then separated by 10% SDS PAGE, transferred and blotted. The following antibodies (Cell Signaling Technology, Beverly Mass.) were tested: antiphosphotyrosine antibody (P-Tyr-100), anti-phospho-PKC αβII, anti-PKCα, anti-phospho-PKCδ, anti-phospho-PKC (pan), anti-p44/42 MAPK, anti-phospho-Raf, anti-phospho-SAPK/JNK, anti-phospho-p38 Map kinase, anti-phospho-Raf, anti-phospho-Akt, anti-phospho-CaMKII, anti-phospho-MARCKS, or anti-tubulin (loading control). After washing, bound antibodies were detected with peroxidase-labeled secondary antibody and ECL. With the exception of at least nine proteins in the P-Tyr-100 blot (FIG. 1), none of the effectors tested above appeared to be phospho-activated during lacritin signaling (not shown). For mitogenesis (Hussaini et al., '00), [^3H]-thymidine (2 mCi/ml) was added for the next 6 h. Incorporation was stopped with ice-cold phosphate buffered saline and followed by addition of cold and then room temperature trichloracetic acid (10%) for 10 min each, washing of cells with phosphate buffered saline, solubilization with 1 N sodium hydroxide, neutralization with 1 N hydrochloric acid, addition of scintillation fluid and then quantitation in a scintillation counter. To deplete PKCα in HSG cells, a pool of four PKCα-specific siRNAs (100 nM) were transfected via LipofectAMINE 2000 in Opti-MEMI Reduced Serum Medium (Invitrogen, Grand Island N.Y.) without serum and antibiotics according to manufacturer's instructions. Each of the four siRNAs was also individually transfected. In negative controls, cells were transfected with a pool of four lamin-specific siRNAs (Upstate LLC, Charlottesville Va.; Dharmacon Inc, Lafayette Colo.). Seventy-two hours post-transfection, mitogenesis was assessed by co-addition of 10 […] lacritin and [^3H]-thymidine (2 mCi/ml) (Amersham, Piscataway N.J.) for 24 hrs. PKCα depletion was confirmed by Western blotting.
We imaged PKCα in cells 15 min after treatment (FIG. 8). Nonmitogenic construct/fragment C-25 (10 nM) had no effect, leaving PKCa diffusely distributed throughout the cytoplasm. […] The phosphorylation state of PKCα influences its translocation site. Hyperphosphorylated PKCα becomes associated with the plasma membrane whereas hypophosphorylated or dephosphorylated PKCα is known to translocate to the perinuclear Golgi region. To determine if the latter is true and if so over what time course, we treated cells with lacritin, N-24 and C-25, and then blotted cell lysates for phospho-PKC ? (FIG. 8B). 10 nM lacritin promotes PKC ? dephosphorylation within 1 min of addition. This form is sustained for at least 15 min, but by 30 min has returned to baseline phosphorylation. Dephosphorylation triggered by increasing molar levels of lacritin or N-24 mirrored the proliferation response with optimal dephosphorylation at 10 nM. Non-mitogenic C-25 had no effect, whereas positive control 4β-phorbol 12-myristate 13-acetate-promoted hyperphosphorylation.

caspase-3 = assay: Caspase-3 activity in human corneal epithelial cells treated with TNF; type: cell-based; settings: FIG. 11
Experimental: FIG. 11 graphically illustrates the ability of lacritin and fragments of lacritin to inhibit the ability of tumor necrosis factor (TNF) to regulate caspase-3 activity in human corneal epithelial cells. Go6976 is an inhibitor of protein kinase C. The ordinate represents relative fluorescence units. White bars indicate 3 hours and diagonally-hatched bars indicate 6 hours.
(§2) Lacritin-induced proliferation and calcium signaling was studied in the human corneal epithelial (HCE) cell line. HCE cells were grown at 37° C. in DMEM F/12 supplemented with 10% FBS and 50 μg/ml gentamicin. Each experiment was done in a dose- and time-dependent manner using TNF-α (5-20 ng/ml) and lacritin (1-10 nM). Cell viability was measured spectrophotometrically at an absorbance of 570 nm using the MTT assay. Caspase-8 activity was detected fluorometrically by measuring cleavage of the fluorogenic substrate IETD-pNA at an excitation wavelength of 405 nm. Lacritin-induced cell proliferation was studied by H3-thymidine incorporation and via fluorescence-based detection of PKC, PLC and cAMP. Calcium signaling was detected by confocal microscopy of Fluo-4 loaded cells.

[3] = tested on: human corneal epithelial (HCE) cell line; assay: TNF-α-induced cell death in HCE cells (MTT cell viability); type: cell-based; settings: 18 or 30 hours; FIG. 10
Experimental: as §2

[4] = tested on: human salivary ductal (HSG) cells; assay: 3H-thymidine uptake mitogenesis assay; type: cell-based; settings: 10 nM; compared to intact lacritin
Experimental: as §1

caspase-8 = assay: Caspase-8 activity in human corneal epithelial cells treated with TNF-α; type: cell-based
Experimental: FIG. 12 graphically illustrates the ability of lacritin polypeptides to block TNFα induced caspase-8 activity in human corneal epithelial cells. The ordinate represents relative fluorescence units. White bars indicate 1 hour and diagonally-hatched bars indicate 6 hours.
as §2

MUC16 = MUC16 blot of human corneal epithelial cells; type: cell-based; settings: 10 nM
Text: MUC16 is an important mucin on the ocular surface. Mucin contributes to the tear film, is important for wetting the ocular surface, and is reduced in Sjogren's syndrome patients. […] Cells were blotted for MUC16.

NFATC1 = NFATC1 translocation in HSG cells (immunofluorescence); type: cell-based, human; settings: HSG and corneal epithelial cells
Text: In order to dissect the molecular pathways leading to the cell survival by lacritin, protein kinases and transcriptional factors were studied by Western blotting and immunofluorescence microscopy. […] On the other hand, there were increased activities of transcriptional factors such as nuclear factor of activated T-cells (NFAT) and NF-kappaB. In FIG. 4, translocation of PKC alpha and NFAT was detected by immunofluorescence coupled with confocal microscopic imaging. In resting HSG cells (left three images), PKC alpha distributes mainly in cytosol and membrane. Similarly, NFATc1 was also found to localize largely in cytosol. Cellular co-location of PKC alpha and NFATc1 is apparent upon merging the two immunofluorescent images, as the merged cy3 and FITC labels produce distinctive yellow color.
Images were acquired at 2-3 s intervals using LaserSharp2000 software (Bio-Rad) and store on disc for later analysis. For translocation assays, HSG cells […] phorbol 12-myristate 13-acetate, […], then washed with phosphate-buffered saline, formaldehyde-fixed, blocked with phosphate-buffered saline containing 1% bovine serum albumin and 10% goat serum, incubated with anti-PKCα (C-20) or anti-NFATC1 (mab 7A6) (both from Santa Cruz Biotechnology Inc.; Santa Cruz, Calif.) followed by secondary Cy3-, FITC- or Alexa488-labeled antibodies and confocal microscopic visualization (Bio-Rad Radiance2100).

B1: C-25: deletion of the 25 carboxy terminal amino acids of mature lacritin (SEQ ID NO:10) (protein)
chain: EDASSDSTGADPAQEAGTSKPNEEISGPAEPASPPETTTTAQETSAAAVQGTAKVTSSRQELNPLKSIVEKSILLTEQALAKAGKGMHGGVPGG
modifications: homo sapiens
For B1, the “effect on TNF-α-induced caspase-9 activity” value (caspase-9) was “fail to block”, the PKCα translocation (PKCα [1]) was “had no effect” and the “effect on PKCα phosphorylation” value (PKCα [2]) was “had no effect”. For the same molecule, the “protection from cell death by TNF (caspase-3 activity)” value (caspase-3) was “do not protect”, the “protection from TNF-induced cell death (viability)” value [3] was “no effect on viability loss” and the “mitogenic activity of deletion constructs” value [4] was “inactive”. For the same molecule, the “effect on TNF-α-induced caspase-8 activity” value (caspase-8) was “fail to block”, the MUC16 secretion (MUC16) was “inactive” and the NFATC1 translocation (NFATC1) was “had no effect”.

B2: C-5: deletion of the 5 carboxy terminal amino acids of mature lacritin (SEQ ID NO:10) (protein, listed as Homo sapiens)
chain: EDASSDSTGADPAQEAGTSKPNEEISGPAEPASPPETTTTAQETSAAAVQGTAKVTSSRQELNPLKSIVEKSILLTEQALAKAGKGMHGGVPGGKQFIENGSEFAQKLLKKFSL
With B2 the “effect on TNF-α-induced caspase-9 activity” value (caspase-9) was “blocked”, the “protection from TNF-induced cell death (viability)” value [3] was “protect” and the “mitogenic activity of deletion constructs” value [4] was “active”. The “effect on TNF-α-induced caspase-8 activity” value (caspase-8) was “blocked”.
